Assay results from US20220002701A1 (CHILDREN S MEDICAL CENTER, published 2022).
Where two headings read alike, the source gives them in different places.

Key:
[1] = molecular target: T1, stabilized soluble SARS-CoV-2 S ectodomain trimer in the pre-fusion conformation (SARS-CoV-2; bacteriophage T4, UniProt P0DTC2 14-1208; P10104 458-484)
T1 construct: also called soluble S trimer; S trimer

[2] = molecular target: T1, stabilized soluble SARS-CoV-2 S …; remark: listed apart in the source

B1: ACE2615-foldon-K353Y (receptor)
chain: QSTIEEQAKTFLDKFNHEAEDLFYQSSLASWNYNTNITEENVQNMNNAGDKWSAFLKEQSTLAQMYPLQEIQNLTVKLQLQALQQNGSSVLSEDKSKRLNTILNTMSTIYSTGKVCNPDNPQECLLLEPGLNEIMANSLDYNERLWAWESWRSEVGKQLRPLYEEYVVLKNEMARANHYEDYGDYWRGDYEVNGVDGYDYSRGQLIEDVEHTFEEIKPLYEHLHAYVRAKLMNAYPSYISPIGCLPAHLLGDMWGRFWTNLYSLTVPFGQKPNIDVTDAMVDQAWDAQRIFKEAEKFFVSVGLPNMTQGFWENSMLTDPGNVQKAVCHPTAWDLGYGDFRILMCTKVTMDDFLTAHHEMGHIQYDMAYAAQPFLLRNGANEGFHEAVGEIMSLSAATPKHLKSIGLLSPDFQEDNETEINFLLKQALTIVGTLPFTYMLEKWRWMVFKGEIPKDQWMKKWWEMKREIVGVVEPVPHDETYCDPASLFHVSNDYSFIRYYTRTLYQFQFQEALCQAAKHEGPLHKCDISNSTEAGQKLFNMLRLGKSEPWTLALENVVGAKNMNVRPLLNYFEPLFTWLKDQNKNSFVGWSTDWSPYADSGGGGSGGYIPEAPRDGQAYVRKDGEWVLLSTFLGGSHHHHHH
notes: also called Sol-ACE2-Foldon-K353Y
B1 showed a Kd [1] of 32.3 nM, a Kd [2] of 32.3 nM and a ka2 [2] of 0.397. The kdis2 [2] was 0.00545, the koff [2] was 0.00322 s⁻¹ and the kon [2] was 99600 M⁻¹ s⁻¹.
